In IntAct's records for PubMed 23105096:

B1: Ras-related protein Rab-26 (Homo sapiens), Q9ULW5 (parent)
chain: MSRKKTPKSKGASTPAASTLPTANGARPARSGTALSGPDAPPNGPLQPGRPSLGGGVDFYDVAFKVMLVGDSGVGKTCLLVRFKDGAFLAGTFISTVGIDFRNKVLDVDGVKVKLQMWDTAGQERFRSVTHAYYRDAHALLLLYDVTNKASFDNIQAWLTEIHEYAQHDVALMLLGNKVDSAHERVVKREDGEKLAKEYGLPFMETSAKTGLNVDLAFTAIAKELKQRSMKAPSEPRFRLHDYVKREGRGASCCRP

Variants of: B1
Conditions: with ada2b_human ADRA2B

**Q.** How did the “effect of a mutation on the interaction” value turn out when N177I was run?
**A.** The value was “decreasing interaction strength”.

**Q.** T77N was tested. Which “effect of a mutation on the interaction” value did it give?
**A.** Its value is “decreasing interaction strength”.

Variants of: B1
Conditions: with ada2b_human ADRA2B
Remark: another data set of the same source

**Q.** Which “effect of a mutation on the interaction” value does the source give for N177I here?
**A.** The value was “disrupting interaction strength”.
